5 variants from IntAct's records for PubMed 20847002 can be followed below.

The chains are these.
B1: Probable peptidoglycan glycosyltransferase FtsW (Escherichia coli (strain K12)), P0ABG4 (parent)
chain: MRLSLPRLKMPRLPGFSILVWISTALKGWVMGSREKDTDSLIMYDRTLLWLTFGLAAIGFIMVTSASMPIGQRLTNDPFFFAKRDGVYLILAFILAIITLRLPMEFWQRYSATMLLGSIILLMIVLVVGSSVKGASRWIDLGLLRIQPAELTKLSLFCYIANYLVRKGDEVRNNLRGFLKPMGVILVLAVLLLAQPDLGTVVVLFVTTLAMLFLAGAKLWQFIAIIGMGISAVVLLILAEPYRIRRVTAFWNPWEDPFGSGYQLTQSLMAFGRGELWGQGLGNSVQKLEYLPEAHTDFIFAIIGEELGYVGVVLALLMVFFVAFRAMSIGRKALEIDHRFSGFLACSIGIWFSFQALVNVGAAAGMLPTKGLTLPLISYGGSSLLIMSTAIMMLLRIDYETRLEKAQAFVRGSR
partner: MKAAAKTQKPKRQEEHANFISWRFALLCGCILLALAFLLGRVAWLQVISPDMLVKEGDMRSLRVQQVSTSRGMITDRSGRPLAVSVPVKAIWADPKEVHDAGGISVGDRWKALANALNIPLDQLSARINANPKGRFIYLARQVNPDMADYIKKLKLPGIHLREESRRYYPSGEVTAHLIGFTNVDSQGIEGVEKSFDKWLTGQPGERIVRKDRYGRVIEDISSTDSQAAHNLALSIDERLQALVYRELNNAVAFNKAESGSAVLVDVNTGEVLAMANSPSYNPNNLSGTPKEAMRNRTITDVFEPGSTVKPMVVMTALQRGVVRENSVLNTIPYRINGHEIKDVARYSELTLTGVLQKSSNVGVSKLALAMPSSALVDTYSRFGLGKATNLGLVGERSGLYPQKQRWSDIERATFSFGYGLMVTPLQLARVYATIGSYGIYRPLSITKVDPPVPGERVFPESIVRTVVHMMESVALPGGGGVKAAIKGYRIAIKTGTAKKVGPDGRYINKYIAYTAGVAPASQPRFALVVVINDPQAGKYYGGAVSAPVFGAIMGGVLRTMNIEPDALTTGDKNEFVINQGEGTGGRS
B2: Probable peptidoglycan glycosyltransferase FtsW (Escherichia coli (strain K12)), P0ABG4 (parent)
chain: B1 chain
partner: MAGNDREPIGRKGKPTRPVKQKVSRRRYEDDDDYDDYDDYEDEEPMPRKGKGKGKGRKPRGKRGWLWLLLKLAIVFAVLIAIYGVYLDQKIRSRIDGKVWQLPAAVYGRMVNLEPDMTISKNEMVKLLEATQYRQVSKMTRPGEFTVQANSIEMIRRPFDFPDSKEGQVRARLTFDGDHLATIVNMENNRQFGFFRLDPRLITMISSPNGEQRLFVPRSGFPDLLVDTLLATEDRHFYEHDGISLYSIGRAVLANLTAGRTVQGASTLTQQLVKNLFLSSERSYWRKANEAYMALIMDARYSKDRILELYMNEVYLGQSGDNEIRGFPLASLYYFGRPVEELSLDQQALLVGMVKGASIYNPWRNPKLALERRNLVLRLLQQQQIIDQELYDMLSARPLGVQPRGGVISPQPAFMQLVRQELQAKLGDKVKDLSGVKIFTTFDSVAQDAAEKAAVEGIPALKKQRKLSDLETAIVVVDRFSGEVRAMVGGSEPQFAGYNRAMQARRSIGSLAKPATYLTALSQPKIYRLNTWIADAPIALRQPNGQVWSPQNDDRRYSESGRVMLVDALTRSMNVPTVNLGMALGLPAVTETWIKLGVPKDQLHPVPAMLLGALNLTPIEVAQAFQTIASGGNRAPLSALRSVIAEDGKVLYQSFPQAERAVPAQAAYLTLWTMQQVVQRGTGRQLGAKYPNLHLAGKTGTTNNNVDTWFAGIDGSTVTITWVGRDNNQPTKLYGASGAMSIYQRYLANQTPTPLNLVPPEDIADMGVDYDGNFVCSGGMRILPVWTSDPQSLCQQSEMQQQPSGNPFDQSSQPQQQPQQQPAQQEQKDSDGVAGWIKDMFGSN
B3: Peptidoglycan D,D-transpeptidase FtsI (Escherichia coli (strain K12)), P0AD68 (parent)
chain: B1 partner
partner: B1 chain

Variants of B1 are the subject of the first test. Particulars: with ftsi_ecoli ftsI.
P375A: the “effect of a mutation on the interaction” value is “decreasing interaction”. Still for that read-out and setting: then P368A, with “decreasing interaction”.

In the next test the parent is B2. Particulars: with pbpb_ecoli mrcB.
Take P368A: the “effect of a mutation on the interaction” value is given as “decreasing interaction”. For the variant P375A, the “effect of a mutation on the interaction” value is on record as “decreasing interaction”.

In another test the parent is B3. The conditions noted are these: with ftsw_ecoli ftsW.
In the case of R23C, the “effect of a mutation on the interaction” value was “decreasing interaction strength”.
